{"source": "patent US9724381B2", "about": "(THE ADMINISTRATORS OF THE TULANE EDUCATIONAL FUND, priority 2009, dated 2017)", "key": {"[1]": {"target": "T1, ghrelin-R (GHS-R 1a) (Rattus norvegicus, UniProt O08725)", "T1 construct": "from tissue; host or cells: whole animal (hypothalamus)", "T1 sequence (O08725 whole entry)": "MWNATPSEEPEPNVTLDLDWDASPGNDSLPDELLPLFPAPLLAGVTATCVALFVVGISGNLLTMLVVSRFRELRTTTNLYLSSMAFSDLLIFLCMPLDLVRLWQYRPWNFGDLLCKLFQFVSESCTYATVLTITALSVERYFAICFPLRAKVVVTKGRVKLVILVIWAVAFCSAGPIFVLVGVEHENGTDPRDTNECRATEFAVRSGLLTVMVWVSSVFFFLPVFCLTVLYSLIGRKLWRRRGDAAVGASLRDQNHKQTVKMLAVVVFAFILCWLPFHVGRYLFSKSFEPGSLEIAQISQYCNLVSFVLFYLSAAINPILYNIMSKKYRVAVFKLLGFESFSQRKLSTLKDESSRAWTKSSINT", "assay": "Plasma growth hormone / GH secretion after administration of peptide (FIG. 11)", "format": "in vivo"}, "[2]": {"target": "T1, ghrelin-R (GHS-R 1a)", "assay": "Food intake after administration of peptide (FIG. 10)", "format": "in vivo"}, "[3]": {"target": "T2, ghrelin O-acyltransferase (GOAT) (Mus musculus, UniProt P0C7A3)", "T2 sequence (P0C7A3 1-435)": "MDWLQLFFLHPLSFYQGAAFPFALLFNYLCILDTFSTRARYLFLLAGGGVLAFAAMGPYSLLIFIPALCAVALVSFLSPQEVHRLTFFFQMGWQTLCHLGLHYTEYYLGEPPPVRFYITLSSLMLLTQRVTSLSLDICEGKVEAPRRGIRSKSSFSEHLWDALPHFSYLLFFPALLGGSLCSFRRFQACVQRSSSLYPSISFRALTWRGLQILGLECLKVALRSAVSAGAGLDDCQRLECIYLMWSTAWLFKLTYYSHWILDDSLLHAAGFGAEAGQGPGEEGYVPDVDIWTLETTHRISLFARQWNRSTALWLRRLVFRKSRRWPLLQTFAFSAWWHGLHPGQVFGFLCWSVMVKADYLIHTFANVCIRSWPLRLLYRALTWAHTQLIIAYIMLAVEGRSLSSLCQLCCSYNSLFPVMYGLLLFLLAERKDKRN", "details": "Yang et al. 2008; cited from earlier work"}, "[4]": {"target": "T3, GHS-R 1a (Rattus norvegicus, UniProt O08725)", "T3 construct": "free-moving rats were i.c.v. injected with either normal saline or GHS-A (5 μg); from tissue; host or cells: whole animal (rat; hypothalamus/pituitary)", "T3 sequence (O08725 whole entry)": "as the sequence (O08725 whole entry) above", "assay": "Plasma GH (ghrelin-induced, GHRH-induced, spontaneous pulsatile) in free-moving adult male rats after GHS-A", "format": "in vivo", "details": "for plasma GH response to ghrelin, central: 5 μg GHS-A i.c.v. 15 min before 500 ng ghrelin i.c.v.", "description": "(§1) Adult male Sprague Dawley rats (225-260 g) were purchased from Charles River Canada (St. Constant, Canada) and individually housed on a 12-h light, 12-h dark cycle (lights on, 0600-1800 h) in a temperature (22±1° C.)- and humidity-controlled room. Purina rat chow (Ralston Purina Co., St. Louis, Mo.) and tap water were available ad libitum.\n(§2) Chronic intracerebroventricular (i.c.v.) and intracardiac venous cannulas were implanted under sodium pentobarbital (50 mg/kg, i.p.) anesthesia using previously described techniques in (2) and (11). The placement of the icy cannulae was verified by both a positive drinking response to i.c.v. carbachol (100 ng/10 μl) injection on the day after surgery and methylene blue dye at the time of death. After surgery, the rats were placed directly in isolation test chambers with food and H2O freely available until body weight returned to preoperative levels (usually within 5-7 d). During this time the rats were handled daily to minimize any stress associated with handling on the day of the experiment. On the test day, food was removed 1.5 h before the start of sampling and was returned at the end.\nThe efficacy of GHS-A to antagonize ghrelin's stimulatory action on GH at both central and peripheral sites was examined. […] (500 ng). Both the human ghrelin peptide (provided by Dr. K. Chang, Phoenix Pharmaceuticals, Inc., Belmont, Calif.) and the GHS-A were diluted in normal saline just before use. Blood samples (0.35 ml) were withdrawn every 15 min over a 6-h sampling period (1000-1600 h) from all animals. […] All blood samples were immediately centrifuged, and plasma was separated and stored at −20° C. for subsequent assay of GH. To avoid hemodynamic disturbance, the red blood cells were resuspended in normal saline and returned to the animal after removal of the next blood sample.\nBlood samples were withdrawn from 1000-1600 h, as described above.\nThese time points were chosen because they correspond closely to the time of onset of the spontaneous GH secretory episodes, as previously documented in our laboratory (2, 4). Blood samples were withdrawn from 1000-1600 h, as described above; however, no blood sample was withdrawn 5 min after the injections."}, "[5]": {"target": "T3, GHS-R 1a", "assay": "Spontaneous and ghrelin-induced food intake in rats after i.c.v. GHS-A", "format": "in vivo", "description": "as §1, §2\nThe effects of the GHS-A on both spontaneous and ghrelin-induced food intake and body weight gain were investigated. For the spontaneous experiments, the rats were fasted overnight (1600-1100 h next morning) and were i.c.v.-injected with either normal saline or GHS-A (5 μg) at 1100 h. Food intake was monitored on an hourly basis for 5 h after the initial injection (until 1600 h) and subsequently overnight (1600-0900 h next morning). A measured amount of rat chow pellets was placed in the cage every hour. Spillage was collected by placement of a diaper under the rat cages, and total food consumed for each period was calculated by subtracting uneaten food plus spillage from total given. Body weights were recorded daily at 0900 h. The latency to the onset of the first meal after the injection and the duration of that meal were also monitored.\nFood intake was monitored on an hourly basis as described above. In this experiment, food was removed 1.5 h before the start of the test."}, "[6]": {"target": "Ghrelin/GHRP/GHS Receptor (Rattus norvegicus, UniProt O08725)", "sequence (O08725 whole entry)": "as the sequence (O08725 whole entry) above", "assay": "In vivo GH release in rat (serum GH by RIA after i.v. peptide)", "details": "Table 2", "description": "For the in vivo assay of GH Release in rat, immature female Sprague Dawley rats were obtained from Charles River from Wilmington, Mass. After arrival they were housed at 25° C. with a 14:10 h light:dark cycle. Water and Purina rat chow were available at libitum. Pups were weaned at 21 days of age.\nImmature twenty six day old female Sprague Dawley rats, 3-6 rats per treatment dose, were pretreated with pentobarbital 20 minutes before iv injection of vehicle/peptide or peptide plus stimulator. Injection was made as a 0.1 ml solution. For the non-pentobarbital treated rat assay, peptides were administered iv into the tail vein of conscious rats. All animals were sacrificed by guillotine after iv peptide or vehicle. Trunk blood was collected at +10-15 minutes […], allowed to clot, centrifuged and serum stored until assayed for GH levels by RIA. The GH RIA reagents were distributed by the NIH. Control data was collected from rats treated with only the corresponding vehicle in the absence of peptide or stimulator. Control stimulated data was collected from rats treated with stimulator alone in the absence of any peptide."}, "[7]": {"details": "listed as Gly-Met-Ala-Gly-Ser-(Dap-Oct)-Phe-Leu-Ser-Pro-Glu-His-NH2"}, "[8]": {"details": "listed as Gly-Met-Ala-Gly-Ser-(Dap-Palmityl)-Phe-Leu-Ser-Pro-Glu-His-NH2"}, "[9]": {"details": "5 μg GHS-A i.c.v., spontaneous GH pulses"}, "[10]": {"details": "overnight-fasted animals, 5 μg GHS-A i.c.v."}}, "note": "Where two headings read alike, the source gives them in different places. Where no end group is shown, it is not given here. [ ]: non-standard residue; d: D form. The star is where a group is joined. d2Nal = N[C@H](Cc1ccc2ccccc2c1)C(=O)O; Palmitoyl = CCCCCCCCCCCCCCCC(=O)*; Octanoyl = CCCCCCCC(=O)*; Dap = NC[C@H](N)C(=O)O"}
{"substance": "Gly-Met-Ala-Gly-Ser-(Dap-Oct)-Phe-Leu-Ser-Pro-Glu-His-NH2 (GMAGS[Dap](Octanoyl)FLSPEH-NH2; N-terminus assumed; SMILES CCCCCCCC(=O)NC[C@H](NC(=O)[C@H](CO)NC(=O)CNC(=O)[C@H](C)NC(=O)[C@H](CCSC)NC(=O)CN)C(=O)N[C@@H](Cc1ccccc1)C(=O)N[C@@H](CC(C)C)C(=O)N[C@@H](CO)C(=O)N1CCC[C@H]1C(=O)N[C@@H](CCC(=O)O)C(=O)N[C@@H](Cc1c[nH]cn1)C(N)=O) [peptide #3]", "values": [{"measurement": "growth hormone secretion / plasma growth hormone levels", "setting": "[1]", "value": "inhibited growth hormone secretion"}, {"measurement": "growth hormone secretion / plasma growth hormone levels", "setting": "[1]; [7]", "value": "inhibited"}, {"measurement": "food intake", "setting": "[2]", "value": "inhibited food intake"}, {"measurement": "food intake", "setting": "[2]; [7]", "value": "reduced"}]}
{"substance": "Gly-Met-Ala-Gly-Ser-(Dap-Palmityl)-Phe-Leu-Ser-Pro-Glu-His-NH2 (GMAGS[Dap](Palmitoyl)FLSPEH-NH2; N-terminus assumed; SMILES CCCCCCCCCCCCCCCC(=O)NC[C@H](NC(=O)[C@H](CO)NC(=O)CNC(=O)[C@H](C)NC(=O)[C@H](CCSC)NC(=O)CN)C(=O)N[C@@H](Cc1ccccc1)C(=O)N[C@@H](CC(C)C)C(=O)N[C@@H](CO)C(=O)N1CCC[C@H]1C(=O)N[C@@H](CCC(=O)O)C(=O)N[C@@H](Cc1c[nH]cn1)C(N)=O) [peptide #6]", "values": [{"measurement": "growth hormone secretion / plasma growth hormone levels", "setting": "[1]; [8]", "value": "did not inhibit"}, {"measurement": "food intake", "setting": "[2]; [8]", "value": "did not inhibit GH secretion or decreased food intake"}]}
{"substance": "Gly-Ser-Ser(Oct)-Phe-Leu (GSS(Octanoyl)FL) [octanoylated ghrelin pentapeptide]", "values": [{"measurement": "GOAT activity", "setting": "[3]", "value": "inhibited"}, {"measurement": "potency enhancement when octanoylated serine-3 replaced by octanoylated diaminopropionic acid", "setting": "[3]", "value": 45, "unit": "fold"}]}
{"substance": "His-DβNal-DLys-Trp-DPhe-Lys-NH2 (H[d2Nal][dK]W[dF]K-NH2; N-terminus assumed; SMILES NCCCC[C@H](NC(=O)[C@@H](Cc1ccccc1)NC(=O)[C@H](Cc1c[nH]c2ccccc12)NC(=O)[C@@H](CCCCN)NC(=O)[C@@H](Cc1ccc2ccccc2c1)NC(=O)[C@@H](N)Cc1c[nH]cn1)C(N)=O) [GHRP derivative ghrelin receptor antagonist; GHS-A of the rat studies per b295]", "values": [{"measurement": "1-h GH AUC of the spontaneous GH secretory episode at 1100 h", "setting": "[4]; 5 μg GHS-A i.c.v.", "value": "significantly reduced"}, {"measurement": "1-h GH AUC of the spontaneous GH secretory episode at 1400 h", "setting": "[4]; 5 μg GHS-A i.c.v.", "value": "significantly reduced"}, {"measurement": "overall 6-h GH AUC", "setting": "[4]; 5 μg GHS-A i.c.v.", "value": "significantly reduced"}, {"measurement": "plasma GH response to ghrelin, central", "setting": "[4]; listed as GHS-A", "value": "abolished"}, {"measurement": "plasma GH response to ghrelin, central", "setting": "[4]; listed as HisDβNalDLysTrpDPheLysNH2", "value": "virtually obliterated"}, {"measurement": "amplitude of the spontaneous GH pulses", "setting": "[4]; 5 μg GHS-A i.c.v. 15 min before expected GH secretory bursts", "value": "severely attenuated"}, {"measurement": "reduction of GH AUC following i.c.v. ghrelin", "setting": "[4]; 5 μg GHS-A i.c.v., ghrelin 500 ng i.c.v., vs normal saline controls", "value": 15, "unit": "fold"}, {"measurement": "GH interpeak interval (cluster analysis)", "setting": "[4]; [9]", "value": "no significant effect"}, {"measurement": "GH nadir (cluster analysis)", "setting": "[4]; [9]", "value": "no significant effect"}, {"measurement": "GH peak frequency (cluster analysis)", "setting": "[4]; [9]", "value": "no significant effect"}, {"measurement": "GH peak height (cluster analysis)", "setting": "[4]; [9]", "value": "significant suppression"}, {"measurement": "plasma GH response to ghrelin, peripheral", "setting": "[4]; 250 μg GHS-A i.v. 15 min before 5 μg ghrelin i.v.", "value": "strongly blocked"}, {"measurement": "reduction of GH AUC following i.v. ghrelin", "setting": "[4]; 250 μg GHS-A i.v., ghrelin 5 μg i.v., vs normal saline controls", "value": 5, "unit": "fold"}, {"measurement": "GH response to GHRH", "setting": "[4]; GHRH 5 μg i.v.", "value": "did not significantly reduce"}, {"measurement": "cumulative food intake, ghrelin-stimulated", "setting": "[5]; 5 μg GHS-A i.c.v. before ghrelin 500 ng i.c.v., up to 5 h after injection", "value": "significantly suppressed"}, {"measurement": "ghrelin-stimulated food intake in the first hour after injections", "setting": "[5]; 5 μg i.c.v. before ghrelin 500 ng i.c.v.", "value": "significantly inhibited"}, {"measurement": "cumulative food intake beyond the first hour after injection", "setting": "[5]; [10]", "value": "not inhibited"}, {"measurement": "spontaneous food intake in the first hour after injection", "setting": "[5]; [10]", "value": "significantly inhibited"}, {"measurement": "Stimulated GH release from rat", "setting": "[6]; peptide antagonist 30 μg i.v. + stimulator DAla-DβNal-Ala-Trp-DPhe-Lys-NH2 0.3 μg", "value": "733 ± 85", "unit": "ng/mL"}, {"measurement": "Stimulated GH release from rat", "setting": "[6]; peptide antagonist 100 μg i.v. + stimulator DAla-DβNal-Ala-Trp-DPhe-Lys-NH2 1 μg", "value": "818 ± 269", "unit": "ng/mL"}]}
